Test [1] has as its target T1, cynomolgus monkey FcγRIIIaS extracellular domain, His-tagged (cynomolgus monkey, UniProt Q8SPW2 21-206 at identity 1.00)).
T1 construct: also called cyno FcγRIIIaS; cynoFcγRIIIaS; not shown: C-terminal His-tag
T1 chain: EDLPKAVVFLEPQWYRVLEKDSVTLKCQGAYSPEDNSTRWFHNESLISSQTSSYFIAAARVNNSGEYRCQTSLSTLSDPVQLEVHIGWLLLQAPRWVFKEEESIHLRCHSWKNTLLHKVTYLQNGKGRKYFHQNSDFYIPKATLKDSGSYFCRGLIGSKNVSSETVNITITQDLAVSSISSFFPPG
Nature of the test: SPR (BIACORE), captured antibody, FcgR as analyte. In general terms: SPR reads the build-up and loss of mass on a sensor chip optically.

The target of test [2] is T2, cynomolgus monkey FcγRIIa3 extracellular domain, His-tagged (cynomolgus monkey).
T2 construct: also called cyno FcγRIIa3; cynoFcgRIIa3; not shown: C-terminal His-tag
T2 chain: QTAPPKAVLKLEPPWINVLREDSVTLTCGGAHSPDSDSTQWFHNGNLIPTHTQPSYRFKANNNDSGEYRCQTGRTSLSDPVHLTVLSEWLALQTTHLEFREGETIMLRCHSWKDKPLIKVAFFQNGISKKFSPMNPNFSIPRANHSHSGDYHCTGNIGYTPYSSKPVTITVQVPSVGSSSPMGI
Nature of the test: SPR (BIACORE), captured antibody, FcgR as analyte.

The target in test [3] is T3, cynomolgus monkey FcγRIIb extracellular domain, His-tagged (cynomolgus monkey).
T3 construct: also called cyno FcγRIIb; cynoFcγRIIb; not shown: C-terminal His-tag
T3 chain: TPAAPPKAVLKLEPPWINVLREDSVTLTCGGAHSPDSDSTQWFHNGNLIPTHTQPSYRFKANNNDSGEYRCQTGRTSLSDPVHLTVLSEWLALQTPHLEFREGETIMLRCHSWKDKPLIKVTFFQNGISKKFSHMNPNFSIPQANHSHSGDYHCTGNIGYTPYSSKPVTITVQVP
Kind of test: SPR (BIACORE), captured antibody, FcgR as analyte.

In test [4] the target is T4, cynomolgus monkey FcγRIIa1 extracellular domain, His-tagged (cynomolgus monkey).
T4 construct: also called cyno FcγRIIa1; cynoFcgRIIa1; not shown: C-terminal His-tag
T4 chain: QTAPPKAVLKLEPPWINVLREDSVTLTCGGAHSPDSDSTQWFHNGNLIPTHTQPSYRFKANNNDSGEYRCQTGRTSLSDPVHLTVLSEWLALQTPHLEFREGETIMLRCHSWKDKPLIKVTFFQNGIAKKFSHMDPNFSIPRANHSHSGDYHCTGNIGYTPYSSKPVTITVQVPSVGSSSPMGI
Nature of the test: SPR (BIACORE), captured antibody, FcgR as analyte.

In test [5] the target is T5, human FcγRIIaR extracellular domain, His-tagged (human, UniProt P12318 34-217).
T5 construct: also called human FcγRIIa (type R); FcgRIIaR; not shown: C-terminal His-tag
T5 chain: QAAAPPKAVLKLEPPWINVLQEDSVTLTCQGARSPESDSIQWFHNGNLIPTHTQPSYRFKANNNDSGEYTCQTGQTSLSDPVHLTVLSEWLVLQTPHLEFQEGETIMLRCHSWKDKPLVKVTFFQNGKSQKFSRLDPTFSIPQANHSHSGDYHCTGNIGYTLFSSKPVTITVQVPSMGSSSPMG
Kind of test: SPR (BIACORE), captured antibody, FcgR as analyte.

For test [6], the target named is T6, human FcγRIIaH extracellular domain, His-tagged (human, UniProt P12318 34-217).
T6 construct: also called human FcγRIIa (type H); FcgRIIaH; not shown: C-terminal His-tag
T6 sequence: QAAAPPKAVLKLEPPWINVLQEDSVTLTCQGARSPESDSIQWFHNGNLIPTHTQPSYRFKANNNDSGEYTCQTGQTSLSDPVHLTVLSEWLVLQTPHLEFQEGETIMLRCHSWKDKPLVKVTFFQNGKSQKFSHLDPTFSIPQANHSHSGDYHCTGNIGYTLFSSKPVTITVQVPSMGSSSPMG
Kind of test: SPR (BIACORE), captured antibody, FcgR as analyte.

In test [7] the target is T7, cynomolgus monkey FcγRIIa2 extracellular domain, His-tagged (cynomolgus monkey).
T7 construct: also called cyno FcγRIIa2; cynoFcgRIIa2; not shown: C-terminal His-tag
T7 chain: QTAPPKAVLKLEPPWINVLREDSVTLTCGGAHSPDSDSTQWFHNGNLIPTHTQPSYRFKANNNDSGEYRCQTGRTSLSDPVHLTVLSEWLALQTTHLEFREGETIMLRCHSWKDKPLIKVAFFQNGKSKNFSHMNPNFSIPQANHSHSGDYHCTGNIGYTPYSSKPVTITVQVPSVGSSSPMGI
Nature of the test: SPR (BIACORE), captured antibody, FcgR as analyte.

Test [8] has as its target T8, cynomolgus monkey FcγRIIb extracellular domain with C-terminal His-tag (cynomolgus monkey).
T8 construct: also called cyno FcgRIIb; cynoFcγRIIb
T8 chain: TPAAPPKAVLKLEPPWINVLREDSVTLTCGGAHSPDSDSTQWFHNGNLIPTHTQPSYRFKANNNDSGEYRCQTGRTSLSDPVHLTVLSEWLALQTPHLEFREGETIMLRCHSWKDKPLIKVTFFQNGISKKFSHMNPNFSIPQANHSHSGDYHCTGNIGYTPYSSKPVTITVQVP
Nature of the test: SPR (BIACORE), antibody captured, FcgR analyte.

Broadly, the Kd is the equilibrium constant for the complex coming apart.

B1: M103205H795-MY475/M103202L889-SK1 (antibody, human IgG1, kappa)
heavy: QVTLKESGPVLVKPTETLTLTCTVSGIDLSHDDISWVRQAPGKGLEWVGIISYAGSTYYASWAKGRLTISKDTSKNQVVLTMTNMDPVDTATYYCARGVPAYSHGGDLWGQGTLVTVSSASTKGPSVFPLAPSSKSTSGGTAALGCLVKDYFPEPVTVSWNSGALTSGVHTFPAVLQSSGLYSLSSVVTVPSSSLGTQTYICNVNHKPSNTKVDKKVEPKSCDKTHTCPPCPWPELLTGPSVFLFPPKPKDTLMISRTPEVTCVVVDVSDEDPEVKFNWYVDGVEVHNAKTKPREEQYNSTYRVVSVLTVLHQDWLNGKEYKCKVSNKALPKPIEKTISKAKGQPREPQVYTLPPSREEMTKNQVSLTCLVKGFYPSDIAVEWESNGQPENNYKTTPPVLDSDGSFFLYSKLTVDKSRWQQGNVFSCSVMHEALHNHYTQKSLSLSP
light: DIVMTQSPATLSLSPGERATLSCTSSQSVYHANWLSWFQQKPGQPPKLLIYWASTLAYGVPSRFSGSGSGTDFTLTISSLQPEDAATYYCAGGYGGGRYAFGQGTKVEIKRTVAAPSVFIFPPSDEQLKSGTASVVCLLNNFYPREAKVQWKVDNALQSGNSQESVTEQDSKDSTYSLSSTLTLSKADYEKHKVYACEVTHQGLSSPVTKSFNRGEC
notes: copies: 2 + 2
For the molecule B1, the equilibrium dissociation constant (Kd) in test [1] was determined as 1700 nM; in test [2], 2300 nM; in test [3], 270 nM; in test [4], 1000 nM; in test [5], 210 nM; in test [6], 90 nM. The same molecule yielded a Kd in test [7] of 1000 nM.

B2: M103205H795-MY209/M103202L889-SK1 (antibody, human IgG1, kappa)
heavy: QVTLKESGPVLVKPTETLTLTCTVSGIDLSHDDISWVRQAPGKGLEWVGIISYAGSTYYASWAKGRLTISKDTSKNQVVLTMTNMDPVDTATYYCARGVPAYSHGGDLWGQGTLVTVSSASTKGPSVFPLAPSSKSTSGGTAALGCLVKDYFPEPVTVSWNSGALTSGVHTFPAVLQSSGLYSLSSVVTVPSSSLGTQTYICNVNHKPSNTKVDKKVEPKSCDKTHTCPPCPAPELLNGPSVFLFPPKPKDTLMISRTPEVTCVVVDVSDEDPEVKFNWYVDGVEVHNAKTKPREELYNSTYRVVSVLTVLHQDWLNGKEYKCKVSNTALPKPIEKTISKAKGQPREPQVYTLPPSREEMTKNQVSLTCLVKGFYPSDIAVEWESNGQPENNYKTTPPVLDSDGSFFLYSKLTVDKSRWQQGNVFSCSVMHEALHNHYTQKSLSLSP
light: DIVMTQSPATLSLSPGERATLSCTSSQSVYHANWLSWFQQKPGQPPKLLIYWASTLAYGVPSRFSGSGSGTDFTLTISSLQPEDAATYYCAGGYGGGRYAFGQGTKVEIKRTVAAPSVFIFPPSDEQLKSGTASVVCLLNNFYPREAKVQWKVDNALQSGNSQESVTEQDSKDSTYSLSSTLTLSKADYEKHKVYACEVTHQGLSSPVTKSFNRGEC
notes: Substitutions introduced into M103205H795-SG1, expressed with M103202L889-SK1 as light chain; EU numbering
In test [8], B2 gave an equilibrium dissociation constant (Kd) of 190 nM.

B3: M103205H795-MY283/M103202L889-SK1 (antibody, human IgG1, kappa)
heavy: QVTLKESGPVLVKPTETLTLTCTVSGIDLSHDDISWVRQAPGKGLEWVGIISYAGSTYYASWAKGRLTISKDTSKNQVVLTMTNMDPVDTATYYCARGVPAYSHGGDLWGQGTLVTVSSASTKGPSVFPLAPSSKSTSGGTAALGCLVKDYFPEPVTVSWNSGALTSGVHTFPAVLQSSGLYSLSSVVTVPSSSLGTQTYICNVNHKPSNTKVDKKVEPKSCDKTHTCPPCPAPELLTGPSVFLFPPKPKDTLMISRTPEVTCVVVDVSDEDPEVKFNWYVDGVEVHNAKTKPREELYNSTYRVVSVLTVLHQDWLNGKEYKCKVSNKALPKPIEKTISKAKGQPREPQVYTLPPSREEMTKNQVSLTCLVKGFYPSDIAVEWESNGQPENNYKTTPPVLDSDGSFFLYSKLTVDKSRWQQGNVFSCSVMHEALHNHYTQKSLSLSP
light: DIVMTQSPATLSLSPGERATLSCTSSQSVYHANWLSWFQQKPGQPPKLLIYWASTLAYGVPSRFSGSGSGTDFTLTISSLQPEDAATYYCAGGYGGGRYAFGQGTKVEIKRTVAAPSVFIFPPSDEQLKSGTASVVCLLNNFYPREAKVQWKVDNALQSGNSQESVTEQDSKDSTYSLSSTLTLSKADYEKHKVYACEVTHQGLSSPVTKSFNRGEC
notes: as for B2
B3: in test [8], the Kd turned out to be 420 nM.

B4: M103205H795-MY476/M103202L889-SK1 (antibody, human IgG1, kappa)
heavy: QVTLKESGPVLVKPTETLTLTCTVSGIDLSHDDISWVRQAPGKGLEWVGIISYAGSTYYASWAKGRLTISKDTSKNQVVLTMTNMDPVDTATYYCARGVPAYSHGGDLWGQGTLVTVSSASTKGPSVFPLAPSSKSTSGGTAALGCLVKDYFPEPVTVSWNSGALTSGVHTFPAVLQSSGLYSLSSVVTVPSSSLGTQTYICNVNHKPSNTKVDKKVEPKSCDKTHTCPPCPYPELLTGPSVFLFPPKPKDTLMISRTPEVTCVVVDVSDEDPEVKFNWYVDGVEVHNAKTKPREEQYNSTYRVVSVLTVLHQDWLNGKEYKCKVSNKALPKPIEKTISKAKGQPREPQVYTLPPSREEMTKNQVSLTCLVKGFYPSDIAVEWESNGQPENNYKTTPPVLDSDGSFFLYSKLTVDKSRWQQGNVFSCSVMHEALHNHYTQKSLSLSP
light: DIVMTQSPATLSLSPGERATLSCTSSQSVYHANWLSWFQQKPGQPPKLLIYWASTLAYGVPSRFSGSGSGTDFTLTISSLQPEDAATYYCAGGYGGGRYAFGQGTKVEIKRTVAAPSVFIFPPSDEQLKSGTASVVCLLNNFYPREAKVQWKVDNALQSGNSQESVTEQDSKDSTYSLSSTLTLSKADYEKHKVYACEVTHQGLSSPVTKSFNRGEC
notes: copies: 2 + 2
With B4, the Kd stood at 2000 nM in test [1]; 2600 nM in test [2]; 590 nM in test [3]; 1400 nM in test [4]; 250 nM in test [5]; 140 nM in test [6]. This molecule displayed a Kd in test [7] of 1300 nM.

B5: M103205H795-MY339/M103202L889-SK1 (antibody, human IgG1, kappa)
heavy: QVTLKESGPVLVKPTETLTLTCTVSGIDLSHDDISWVRQAPGKGLEWVGIISYAGSTYYASWAKGRLTISKDTSKNQVVLTMTNMDPVDTATYYCARGVPAYSHGGDLWGQGTLVTVSSASTKGPSVFPLAPSSKSTSGGTAALGCLVKDYFPEPVTVSWNSGALTSGVHTFPAVLQSSGLYSLSSVVTVPSSSLGTQTYICNVNHKPSNTKVDKKVEPKSCDKTHTCPPCPAPELLLGPSVFLFPPKPKDTLMISRTPEVTCVVVDVSDEDPEVKFNWYVDGVEVHNAKTKPREEQYNSTYRVVSVLTVLHQDWLNGKEYKCKVSNTALPKPIEKTISKAKGQPREPQVYTLPPSREEMTKNQVSLTCLVKGFYPSDIAVEWESNGQPENNYKTTPKVLDSDGSFFLYSKLTVDKSRWQQGNVFSCSVMHEALHNHYTQKSLSLSP
light: DIVMTQSPATLSLSPGERATLSCTSSQSVYHANWLSWFQQKPGQPPKLLIYWASTLAYGVPSRFSGSGSGTDFTLTISSLQPEDAATYYCAGGYGGGRYAFGQGTKVEIKRTVAAPSVFIFPPSDEQLKSGTASVVCLLNNFYPREAKVQWKVDNALQSGNSQESVTEQDSKDSTYSLSSTLTLSKADYEKHKVYACEVTHQGLSSPVTKSFNRGEC
notes: as for B2
With B5, the equilibrium dissociation constant (Kd) in test [8] was 750 nM.

The values above are taken from patent publication US20200317768A1 (published 2020).
